Measurements reported in patent US20120178116A1, “POLYPEPTIDES FOR IDENTIFYING FUNGICIDALLY ACTIVE COMPOUNDS” (priority 2011, published 2012).

Columns and labels:
[1] = molecular target: complex of SEQ ID NO: 12 and SEQ ID NO: 16 (MBP-AK / MBP-AKA) (Ustilago maydis, UniProt A0A0D1E894); assay: IMAP fluorescence polarization assay, inhibitor measurement of aurora kinase activity; format: biochemical, U. maydis
Procedure: Assay 3: For the commercially available IMAP Assay (Molecular Devices), 2 substrates for human aurora kinases (Kemptide, Cat #R7331, sequence 5TAMRA-LRRASLG-OH and PKAtide, Cat #R7250, Lot #130188, sequence 5FAM-GRTGRRNSI-NH2) may be purchased commercially. The assay was carried out in accordance with the instructions of the manufacturer.
The IMAP fluorescence polarization assay (Molecular Devices) is based on the specific high-affinity interaction between phosphate groups and trivalent metal ions. The kinase reaction phospholrylates a fluorescent substrate which is then specifically bonded by the metal beads present in the stop solution. This interaction increases the fluorescence polarization, which allows kinase activity to be determined. The assay was carried out in accordance with the instructions of the manufacturer as follows:
1 Vol. of inhibitor in 4% DMSO or 4% DMSO
1 Vol. of enzyme solution
Enzyme solution: for example SEQ ID NO: 12 and SEQ ID NO: 16 (1:1) in Complete Reaction Buffer ATP/substrate: 70 μM ATP/200 nM FAM-PKAtide or TAMRA-Kemptide in Complete Reaction Buffer
Fluorescence polarization was measured in a Tecan Ultra microtitre plate fluorimeter using the following measurement parameters:
Unless indicated otherwise, the activity of the AK was determined by the IMAP method as described under General Methods. […]

[2] = system: SEQ ID NO: 16 (MBP-AKA fusion protein; C terminus of aurora kinase activator um03367 of U. maydis with TAG)

complex of SEQ ID NO: 12 and SEQ ID NO: 16 (MBP-AK / MBP-AKA), sequence (A0A0D1E894 entry or part of it, one chain of several): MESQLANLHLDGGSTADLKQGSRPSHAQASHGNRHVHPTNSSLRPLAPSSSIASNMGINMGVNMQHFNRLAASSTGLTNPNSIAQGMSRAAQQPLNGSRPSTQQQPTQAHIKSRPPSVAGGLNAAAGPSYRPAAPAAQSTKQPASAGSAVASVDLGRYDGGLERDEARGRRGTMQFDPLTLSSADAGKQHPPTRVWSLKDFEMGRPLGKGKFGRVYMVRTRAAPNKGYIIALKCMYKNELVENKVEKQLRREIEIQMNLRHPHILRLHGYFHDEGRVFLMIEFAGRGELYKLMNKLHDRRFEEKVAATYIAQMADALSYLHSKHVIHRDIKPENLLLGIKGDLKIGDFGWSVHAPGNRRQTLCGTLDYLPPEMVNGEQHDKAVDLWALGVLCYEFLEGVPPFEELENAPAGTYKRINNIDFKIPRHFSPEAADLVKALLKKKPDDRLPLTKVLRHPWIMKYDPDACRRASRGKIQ

Molecule | IC50 [1] [nM] | AK activity, radioactive assay (phosphorylation of basic myelin protein) [2] | phosphorylation of basic myelin protein, PKAtide and Kemptide (IMAP fluorescence polarization assays) [2] | phosphorylation of substrates for human aurora kinase A (IMAP assay) [2]
CN[C@@H]1C[C@H]2O[C@@](C)([C@@H]1OC)n1c3ccccc3c3c4c(c5c6ccccc6n2c5c31)C(=O)NC4 [staurosporine] | 2.1 |  |  | 
SEQ ID NO: 12 (MBP-AK fusion protein; aurora kinase um10119 of U. maydis with TAG) |  | SEQ ID NO: 12 in the presence of SEQ ID NO: 16 shows AK activity | The purified complex of MBP-SEQ ID NO: 12 and MBP-SEQ ID NO: 16 was capable of phosphorylating both basic myelin protein and the substrates for human aurora kinases, PKAtide and Kemptide | Both substrates for human aurora kinase A were phosphorylated by SEQ ID NO: 12 in the presence of SEQ ID NO: 16
